Assay results as given in patent publication US20200033338A1.

Columns and labels:
[1] = target: K10N human 39MIR mutant, IChBD fusion (human); experiment: Western blot
[2] = target: Q111D human 39MIR mutant, IChBD fusion (human); experiment: Western blot
[3] = target: V75I human 39MIR mutant, IChBD fusion (human); experiment: Western blot
[4] = target: Torpedo 39MIR peptide-intein-chitin-binding domain (IChBD) fusion protein (Torpedo); experiment: Western blot (FIG. 3)
[5] = target: K10N/D70A/V75I/Q111D human 39MIR quadruple mutant, IChBD fusion (human); experiment: Western blot (FIG. 7)
K10N/D70A/V75I/Q111D human 39MIR quadruple mutant, IChBD fusion (human), sequence (chain, as listed by the source K10N D70A V75I Q111D K10N D70A V75I Q111D): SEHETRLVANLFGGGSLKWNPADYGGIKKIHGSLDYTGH

[6] = target: K10N/V75I/Q111D human 39MIR triple mutant, IChBD fusion (human); experiment: Western blot (FIG. 7)
K10N/V75I/Q111D human 39MIR triple mutant, IChBD fusion (human), sequence (chain, as listed by the source K10N V75I Q111D K10N V75I Q111D): as the sequence (chain, as listed by the source K10N D70A V75I Q111D K10N D70A V75I Q111D) above, with A22D counted along it

[7] = target: Torpedo 39MIR peptide-intein-chitin-binding domain (IChBD) fusion protein (Torpedo); experiment: Western blot of peptide-IChBD fusion (FIG. 5)
[8] = target: Torpedo 39MIR single mutant A70D, IChBD fusion (Torpedo); experiment: Western blot of peptide-IChBD fusion (FIG. 5)
Torpedo 39MIR single mutant A70D, IChBD fusion (Torpedo), sequence (chain, as listed by the source A70D A70D): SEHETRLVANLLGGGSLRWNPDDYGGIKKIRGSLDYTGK

[9] = target: Torpedo 39MIR single mutant D111Q, IChBD fusion (Torpedo); experiment: Western blot of peptide-IChBD fusion (FIG. 5)
Torpedo 39MIR single mutant D111Q, IChBD fusion (Torpedo), sequence (chain, as listed by the source D111Q D111Q): as the sequence (chain, as listed by the source A70D A70D) above, with D22A, D35Q counted along it

[10] = target: Torpedo 39MIR single mutant I75V, IChBD fusion (Torpedo); experiment: Western blot of peptide-IChBD fusion (FIG. 5)
Torpedo 39MIR single mutant I75V, IChBD fusion (Torpedo), sequence (chain, as listed by the source I75V I75V): as the sequence (chain, as listed by the source A70D A70D) above, with D22A, I27V counted along it

[11] = target: Torpedo 39MIR single mutant K115H, IChBD fusion (Torpedo); experiment: Western blot of peptide-IChBD fusion (FIG. 5)
Torpedo 39MIR single mutant K115H, IChBD fusion (Torpedo), sequence (chain, as listed by the source K115H K115H): as the sequence (chain, as listed by the source A70D A70D) above, with D22A, K39H counted along it

[12] = target: Torpedo 39MIR single mutant L12F, IChBD fusion (Torpedo); experiment: Western blot of peptide-IChBD fusion (FIG. 5)
Torpedo 39MIR single mutant L12F, IChBD fusion (Torpedo), sequence (chain, as listed by the source L12F L12F): as the sequence (chain, as listed by the source A70D A70D) above, with L12F, D22A counted along it

[13] = target: Torpedo 39MIR single mutant N10K, IChBD fusion (Torpedo); experiment: Western blot of peptide-IChBD fusion (FIG. 5)
Torpedo 39MIR single mutant N10K, IChBD fusion (Torpedo), sequence (chain, as listed by the source N10K N10K): as the sequence (chain, as listed by the source A70D A70D) above, with N10K, D22A counted along it

[14] = target: Torpedo 39MIR single mutant R66K, IChBD fusion (Torpedo); experiment: Western blot of peptide-IChBD fusion (FIG. 5)
Torpedo 39MIR single mutant R66K, IChBD fusion (Torpedo), sequence (chain, as listed by the source R66K R66K): as the sequence (chain, as listed by the source A70D A70D) above, with R18K, D22A counted along it

[15] = target: Torpedo 39MIR single mutant R79H, IChBD fusion (Torpedo); experiment: Western blot of peptide-IChBD fusion (FIG. 5)
Torpedo 39MIR single mutant R79H, IChBD fusion (Torpedo), sequence (chain, as listed by the source R79H R79H): as the sequence (chain, as listed by the source A70D A70D) above, with D22A, R31H counted along it

[16] = target: Human 39MIR peptide-intein-chitin-binding domain (IChBD) fusion protein (human); experiment: Western blot of peptide-IChBD fusion (FIG. 7)
Human 39MIR peptide-intein-chitin-binding domain (IChBD) fusion protein (human), sequence (chain, as listed by the source): as the sequence (chain, as listed by the source K10N D70A V75I Q111D K10N D70A V75I Q111D) above, with N10K, A22D, I27V, D35Q counted along it

[17] = target: K10N/D70A human 39MIR double mutant, IChBD fusion (human); experiment: Western blot of peptide-IChBD fusion (FIG. 7)
K10N/D70A human 39MIR double mutant, IChBD fusion (human), sequence (chain, as listed by the source K10N D70A K10N D70A): as the sequence (chain, as listed by the source K10N D70A V75I Q111D K10N D70A V75I Q111D) above, with I27V, D35Q counted along it

[18] = target: K10N/D70A/V75I/Q111D human 39MIR quadruple mutant, IChBD fusion (human); experiment: Western blot of peptide-IChBD fusion (FIG. 7)
[19] = target: K10N/Q111D human 39MIR double mutant, IChBD fusion (human); experiment: Western blot of peptide-IChBD fusion (FIG. 7)
K10N/Q111D human 39MIR double mutant, IChBD fusion (human), sequence (chain, as listed by the source K10N Q111D K10N Q111D): as the sequence (chain, as listed by the source K10N D70A V75I Q111D K10N D70A V75I Q111D) above, with A22D, I27V counted along it

[20] = target: K10N/V75I human 39MIR double mutant, IChBD fusion (human); experiment: Western blot of peptide-IChBD fusion (FIG. 7)
K10N/V75I human 39MIR double mutant, IChBD fusion (human), sequence (chain, as listed by the source K10N V75I K10N V75I): as the sequence (chain, as listed by the source K10N D70A V75I Q111D K10N D70A V75I Q111D) above, with A22D, D35Q counted along it

[21] = target: K10N/V75I/Q111D human 39MIR triple mutant, IChBD fusion (human); experiment: Western blot of peptide-IChBD fusion (FIG. 7)
[22] = target: Torpedo 39MIR peptide-intein-chitin-binding domain (IChBD) fusion protein (Torpedo); experiment: Western blot of peptide-IChBD fusion (FIG. 7)
[23] = target: V75I/Q111D human 39MIR double mutant, IChBD fusion (human); experiment: Western blot of peptide-IChBD fusion (FIG. 7)
V75I/Q111D human 39MIR double mutant, IChBD fusion (human), sequence (chain, as listed by the source V75I Q111D V75I Q111D): as the sequence (chain, as listed by the source K10N D70A V75I Q111D K10N D70A V75I Q111D) above, with N10K, A22D counted along it

[24] = target: D70A human 39MIR mutant, IChBD fusion (human); experiment: Western blot of peptide-IChBD fusion (Table 3)
D70A human 39MIR mutant, IChBD fusion (human), sequence (chain, as listed by the source D70A D70A): as the sequence (chain, as listed by the source K10N D70A V75I Q111D K10N D70A V75I Q111D) above, with N10K, I27V, D35Q counted along it

[25] = target: Human 39MIR peptide-intein-chitin-binding domain (IChBD) fusion protein (human); experiment: Western blot of peptide-IChBD fusion (Table 3)
[26] = target: K10N human 39MIR mutant, IChBD fusion (human); experiment: Western blot of peptide-IChBD fusion (Table 3)
[27] = target: Q111D human 39MIR mutant, IChBD fusion (human); experiment: Western blot of peptide-IChBD fusion (Table 3)
[28] = target: Torpedo 39MIR peptide-intein-chitin-binding domain (IChBD) fusion protein (Torpedo); experiment: Western blot of peptide-IChBD fusion (Table 3)
[29] = target: V75I human 39MIR mutant, IChBD fusion (human); experiment: Western blot of peptide-IChBD fusion (Table 3)

K10N human 39MIR mutant, IChBD fusion (human), sequence (chain, as listed by the source K10N K10N): as the sequence (chain, as listed by the source K10N D70A V75I Q111D K10N D70A V75I Q111D) above, with A22D, I27V, D35Q counted along it
V75I human 39MIR mutant, IChBD fusion (human), sequence (chain, as listed by the source V75I V75I): as the sequence (chain, as listed by the source K10N D70A V75I Q111D K10N D70A V75I Q111D) above, with N10K, A22D, D35Q counted along it
Torpedo 39MIR peptide-intein-chitin-binding domain (IChBD) fusion protein (Torpedo), sequence (chain, as listed by the source): as the sequence (chain, as listed by the source A70D A70D) above, with D22A counted along it
Q111D human 39MIR mutant, IChBD fusion (human), sequence (chain, as listed by the source Q111D Q111D): as the sequence (chain, as listed by the source K10N D70A V75I Q111D K10N D70A V75I Q111D) above, with N10K, A22D, I27V counted along it

Substance | fold-change in binding relative to Torpedo 39MIR [7] [fold] | fold-change in binding relative to Torpedo 39MIR [8] [fold] | fold-change in binding relative to Torpedo 39MIR [9] [fold] | fold-change in binding relative to Torpedo 39MIR [10] [fold] | fold-change in binding relative to Torpedo 39MIR [11] [fold] | fold-change in binding relative to Torpedo 39MIR [12] [fold] | fold-change in binding relative to Torpedo 39MIR [13] [fold] | fold-change in binding relative to Torpedo 39MIR [14] [fold] | fold-change in binding relative to Torpedo 39MIR [15] [fold] | fold-change in binding relative to Torpedo 39MIR [17] [fold] | fold-change in binding relative to Torpedo 39MIR [18] [fold] | fold-change in binding relative to Torpedo 39MIR [19] [fold] | fold-change in binding relative to Torpedo 39MIR [20] [fold] | fold-change in binding relative to Torpedo 39MIR [21] [fold] | fold-change in binding relative to Torpedo 39MIR [22] [fold] | fold-change in binding relative to Torpedo 39MIR [23] [fold] | fold-change in binding relative to Torpedo 39MIR [26] [fold] | fold-change in binding relative to Torpedo 39MIR [27] [fold] | fold-change in binding relative to Torpedo 39MIR [28] [fold] | fold-change in binding relative to Torpedo 39MIR [29] [fold] | further results
mAb 198 (antibody) | 1 | 1.08 | 0.16 | 0.16 | 1.07 | 0.9 | 0.82 | 1.03 | 0.97 | 0.72 | 0.99 | 1.19 | 1.79 | 2.52 | 1 | 2.71 | 0.23 | 0.59 | 1 | 0.65 | fold improvement in binding compared to the human 39MIR [1]: 13 fold; fold improvement in binding compared to the human 39MIR [2]: 35.7 fold; fold improvement in binding compared to the human 39MIR [3]: 40 fold; fold stronger binding than to the human MIR mimic [4]: 50 fold; fold improvement in binding compared to the human 39MIR [5]: 11 fold; fold improvement in binding compared to the human 39MIR [6]: 28 fold; fold-change in binding relative to Torpedo 39MIR [16]: 0.09 fold; fold-change in binding relative to Torpedo 39MIR [24]: 0.02 fold; fold-change in binding relative to Torpedo 39MIR [25]: 0.02 fold
mAb 132A (antibody) | 1 | 0.2 | 0.07 | 0.06 | 0.4 | 1.1 | 0.03 | 1.55 | 1.65 | 0.16 | 0.99 | 1.07 | 1.25 | 2.46 | 1 | 3.34 | – | – | 1 | – | –
mAb 35 (antibody) | 1 | 0.93 | – | – | – | 1.42 | 0.29 | 0.62 | 1.91 | 0.31 | 1.7 | 2.31 | 1.1 | 2.97 | 1 | 0.92 | 0.01 | 0.06 | 1 | 0.03 | –
